We go through four molecules from patent US20180002420A1 (TRELLIS BIOSCIENCE, published 2018).

Experiment [1] addresses T1, KIR3DL2 Extracellular Domain (UniProt P43630 22-340, limits assumed).
T1 construct: extracellular domain; ECD either purchased or produced in house; also called KIR3DL2 ECD
As to the kind of experiment: adsorption ELISA on coated KIR ECD, serial dilutions; ND: not detectable. The protocol: (§1) The mAbs prepared in Example 1 were tested in adsorption ELISA using different KIR Extracellullar Domains (ECD), either purchased or produced in house. Serial dilutions allowed calculating binding affinities (listed below in Table 1 in nM); ND: not detectable.

Experiment [2] concerns the target T2, KIR3DL3 Extracellular Domain (UniProt Q8N743 26-322, limits assumed).
T2 construct: extracellular domain; ECD either purchased or produced in house; also called KIR3DL3 ECD
Described as above. The protocol:
as §1

Another experiment addresses T3, BSA (UniProt P02769 25-607).
T3 construct: Control protein in the adsorption ELISA
The experiment is described as follows: adsorption ELISA on coated BSA control, serial dilutions; ND: not detectable. (An ELISA detects its analyte on a solid surface through an enzyme-linked reagent.)

In experiment [3] the target is T4, KIR3DS1 Extracellular Domain (UniProt Q14943 22-340, limits assumed).
T4 construct: extracellular domain; ECD either purchased or produced in house; also called KIR3DS1 ECD
T4 sequence (Q14943 22-340 limits assumed): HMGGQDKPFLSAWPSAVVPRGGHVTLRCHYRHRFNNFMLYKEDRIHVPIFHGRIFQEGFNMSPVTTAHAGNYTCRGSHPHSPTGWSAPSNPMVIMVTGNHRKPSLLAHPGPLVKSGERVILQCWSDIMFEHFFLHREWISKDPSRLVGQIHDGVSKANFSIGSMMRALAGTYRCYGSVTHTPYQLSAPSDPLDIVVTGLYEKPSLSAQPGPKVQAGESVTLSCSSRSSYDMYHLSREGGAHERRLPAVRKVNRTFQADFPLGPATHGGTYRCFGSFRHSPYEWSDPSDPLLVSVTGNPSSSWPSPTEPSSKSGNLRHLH
As to the kind of experiment: adsorption ELISA on coated KIR ECD, serial dilutions; printed as 'Affinity nM'. The protocol: as §1

Experiment [4] addresses T5, KIR2DL1 Extracellular Domain (UniProt P43626 22-245, limits assumed).
T5 construct: extracellular domain; ECD either purchased or produced in house; also called KIR2DL1 ECD
The description is as above. As to the method: as §1

Experiment [5] deals with T6, KIR2DL2 Extracellular Domain (UniProt P43627 22-245, limits assumed).
T6 construct: extracellular domain; ECD either purchased or produced in house; also called KIR2DL2 ECD
T6 sequence (P43627 22-245 limits assumed): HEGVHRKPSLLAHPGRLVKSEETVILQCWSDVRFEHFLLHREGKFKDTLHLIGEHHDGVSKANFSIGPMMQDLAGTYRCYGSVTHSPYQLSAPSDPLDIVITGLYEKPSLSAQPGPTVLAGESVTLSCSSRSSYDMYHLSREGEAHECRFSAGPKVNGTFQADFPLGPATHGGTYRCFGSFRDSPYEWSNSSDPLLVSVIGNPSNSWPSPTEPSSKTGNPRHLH
The experiment is described as above. As to the method:
as §1

Experiment [6] addresses T7, KIR2DL3 Extracellular Domain (UniProt P43628 22-245, limits assumed).
T7 construct: extracellular domain; ECD either purchased or produced in house; also called KIR2DL3 ECD
The experiment is described as above. As to the method:
as §1

The target in experiment [7] is T8, KIR2DL4 Extracellular Domain (UniProt Q99706 22-242, limits assumed).
T8 construct: extracellular domain; ECD either purchased or produced in house; also called KIR2DL4 ECD
T8 sequence (Q99706 22-242 limits assumed): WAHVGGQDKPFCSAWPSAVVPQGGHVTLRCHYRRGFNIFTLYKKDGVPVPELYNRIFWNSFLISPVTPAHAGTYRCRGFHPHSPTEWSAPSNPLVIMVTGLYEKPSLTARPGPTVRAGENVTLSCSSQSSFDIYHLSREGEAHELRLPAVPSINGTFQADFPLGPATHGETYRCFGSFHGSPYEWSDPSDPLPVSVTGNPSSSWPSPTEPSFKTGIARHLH
Described as above. The protocol: as §1

For experiment [8], the target named is T9, KIR3DL1 Extracellular Domain (UniProt P43629 22-340, limits assumed).
T9 construct: extracellular domain; ECD either purchased or produced in house; also called KIR3DL1 ECD
T9 sequence (P43629 22-340 limits assumed): as the sequence (Q14943 22-340 limits assumed) above, with V47I, G58S, M92V, R136K, W138G, S163P, R166L, L199P, L315P counted along it
The description is as above. As to the method:
as §1

Experiment [9] concerns the target T5, KIR2DL1 Extracellular Domain. The experiment is described as follows: adsorption ELISA on coated KIR ECD, serial dilutions; ND: not detectable. As to the method:
as §1

Experiment [10] addresses T8, KIR2DL4 Extracellular Domain. The description is as above. As to the method: as §1
Experiment [11] addresses T10, KIR2DS4 Extracellular Domain (UniProt P43632 22-245, limits assumed).
T10 construct: extracellular domain; ECD either purchased or produced in house; also called KIR2DS4 ECD
The experiment is described as follows: adsorption ELISA on coated KIR ECD, serial dilutions; printed as 'Affinity nM'. As to the method: as §1

The target in experiment [12] is T4, KIR3DS1 Extracellular Domain. As to the kind of experiment: adsorption ELISA on coated KIR ECD, serial dilutions; ND: not detectable. The protocol:
as §1

Experiment [13] has as its target T9, KIR3DL1 Extracellular Domain. Described as above. The protocol:
as §1

Experiment [14] addresses T10, KIR2DS4 Extracellular Domain. The experiment is described as above. The protocol: as §1
Experiment [15] concerns the target T1, KIR3DL2 Extracellular Domain. As to the kind of experiment: adsorption ELISA on coated KIR ECD, serial dilutions; printed as 'Affinity nM'. The protocol: as §1

Broadly, the Kd is the constant that tells how readily two partners part at equilibrium. A low value points to higher affinity.

T5 sequence (P43626 22-245 limits assumed): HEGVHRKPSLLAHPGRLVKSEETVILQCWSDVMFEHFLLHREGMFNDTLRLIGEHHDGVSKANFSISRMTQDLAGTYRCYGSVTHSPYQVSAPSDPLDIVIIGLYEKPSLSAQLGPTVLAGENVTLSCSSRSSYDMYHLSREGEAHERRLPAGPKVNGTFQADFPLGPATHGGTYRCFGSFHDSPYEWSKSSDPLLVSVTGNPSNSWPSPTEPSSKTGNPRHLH
T2 sequence (Q8N743 26-322 limits assumed): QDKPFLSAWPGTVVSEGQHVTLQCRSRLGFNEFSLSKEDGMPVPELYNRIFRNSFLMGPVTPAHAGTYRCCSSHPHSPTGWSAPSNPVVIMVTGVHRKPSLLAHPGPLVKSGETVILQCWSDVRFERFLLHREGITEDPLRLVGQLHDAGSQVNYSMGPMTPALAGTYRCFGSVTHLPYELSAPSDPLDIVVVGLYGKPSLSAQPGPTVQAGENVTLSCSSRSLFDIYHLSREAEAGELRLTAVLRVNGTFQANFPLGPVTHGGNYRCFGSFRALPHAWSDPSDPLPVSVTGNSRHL
T7 sequence (P43628 22-245 limits assumed): as the sequence (P43627 22-245 limits assumed) above, with R16P, E35Q, C148R, I200T, K216E counted along it
T1 sequence (P43630 22-340 limits assumed): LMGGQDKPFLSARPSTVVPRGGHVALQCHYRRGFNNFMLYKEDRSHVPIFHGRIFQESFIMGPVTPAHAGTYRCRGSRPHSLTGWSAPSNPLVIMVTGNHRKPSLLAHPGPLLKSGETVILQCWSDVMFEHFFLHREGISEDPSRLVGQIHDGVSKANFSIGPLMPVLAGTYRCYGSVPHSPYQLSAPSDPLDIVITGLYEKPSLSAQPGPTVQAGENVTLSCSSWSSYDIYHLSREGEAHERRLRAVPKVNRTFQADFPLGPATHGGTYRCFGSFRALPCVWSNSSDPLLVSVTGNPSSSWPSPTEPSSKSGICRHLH
T3 sequence (P02769 25-607 limits assumed): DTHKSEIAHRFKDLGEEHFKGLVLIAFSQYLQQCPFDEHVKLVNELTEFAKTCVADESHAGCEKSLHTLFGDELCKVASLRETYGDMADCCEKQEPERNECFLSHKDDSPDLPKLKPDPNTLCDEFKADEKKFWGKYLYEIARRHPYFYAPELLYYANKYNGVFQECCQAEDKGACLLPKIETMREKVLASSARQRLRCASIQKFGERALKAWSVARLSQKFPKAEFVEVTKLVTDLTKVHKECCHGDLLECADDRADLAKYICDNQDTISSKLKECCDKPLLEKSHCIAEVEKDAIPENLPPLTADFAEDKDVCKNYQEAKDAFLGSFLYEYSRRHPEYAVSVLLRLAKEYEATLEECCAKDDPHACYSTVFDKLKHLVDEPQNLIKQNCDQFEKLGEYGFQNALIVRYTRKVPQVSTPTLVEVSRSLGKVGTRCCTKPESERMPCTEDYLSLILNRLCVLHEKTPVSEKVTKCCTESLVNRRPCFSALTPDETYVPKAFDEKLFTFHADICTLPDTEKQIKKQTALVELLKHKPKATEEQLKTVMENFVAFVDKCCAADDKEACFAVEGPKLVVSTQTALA
T10 sequence (P43632 22-245 limits assumed): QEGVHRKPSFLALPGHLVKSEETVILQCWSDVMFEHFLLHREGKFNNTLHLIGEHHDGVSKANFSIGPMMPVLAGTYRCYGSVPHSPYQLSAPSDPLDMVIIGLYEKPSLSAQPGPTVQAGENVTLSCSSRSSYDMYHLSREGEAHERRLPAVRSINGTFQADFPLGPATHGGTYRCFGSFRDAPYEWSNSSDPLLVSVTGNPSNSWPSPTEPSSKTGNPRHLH

B1: TRL8608 (antibody, V domains shown)
VH: QVQLVQSGAEVKKPGASVKISCKASGYTFTSYYMHWLRQAPGQGLEWMGVINPTDGSTSYAQKFHGRVTMTRVTSTSTVYMDLSSLRSDDTAMYYCAKAHIHAAEGEWFDPWGQGTLVTVSS
VL: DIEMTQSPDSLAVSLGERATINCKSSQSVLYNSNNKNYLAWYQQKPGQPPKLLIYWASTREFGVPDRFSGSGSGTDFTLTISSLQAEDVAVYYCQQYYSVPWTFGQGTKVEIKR
notes: Human variable regions cloned from donor B cells and fused recombinantly to an independently cloned generic constant region; Kappa light chain
B1: the binding result (in experiment [1]; in experiment [2]; with BSA) was “no binding” in each case. Besides, the Kd amounted to 1800 nM in experiment [3]; 1100 nM in experiment [4]; 1800 nM in experiment [5]; 79 nM in experiment [6]; 2000 nM in experiment [7]; 1900 nM in experiment [8].

B2: TRL8504 (antibody, V domains shown)
VH: QVQLVESGGGVVRPGRSLRLSCAASGFTFNRFAMHWVRQAPGKGLEWVSVISYDGHNKYYIDSVKGRFTISRDDSKNTLHLQMNSLRPEDTAVYYCARARDDGRGIFDYWGQGILVTVSS
VL: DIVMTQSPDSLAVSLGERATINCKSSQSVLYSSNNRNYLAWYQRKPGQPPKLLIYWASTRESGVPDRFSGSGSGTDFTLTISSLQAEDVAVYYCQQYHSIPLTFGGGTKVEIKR
notes: as for B1
Turning to B2, the binding result (in experiment [1]; in [2]; in experiment [9]; in experiment [10]; with BSA) was “no binding” each time. Further, the Kd in experiment [3] turned out to be 54 nM; in experiment [11] it was 55 nM; in experiment [5], 12 nM; in experiment [6], 38 nM; in [8], 10 nM.

B3: TRL8605 (antibody, V domains shown)
VH: QVQLVQSGGGVVQPGRSLRLSCAVSGFTFSSYGMHWVRQAPGKGLEWVTIISYDGSNYDYADSVKGRFTISRDNSKNMVYLQMNSLRADDTAVYYCAKDGFDYWGQGTLVTVSS
VL: DIVLTQSPDSLAVSLGERATINCKSSQSVLYSSNNRTYLAWFQQKSGQPPKLLIYWASTRQSGVADRFSGSGSGTDFTLTISSLQAEDVAVYYCQQYYTTPFTFGPGTRVDFKR
notes: as for B1
Turning to B3, the binding result (in experiment [1]; in experiment [2]; in [12]; in [10]; in experiment [13]; with BSA) was “no binding” each time. Also, the dissociation constant Kd in experiment [11] came to 2.6 nM; in [4], 0.026 nM; in [5], 0.018 nM; in [6], 0.005 nM.

B4: TRL8507 (antibody, V domains shown)
VH: QVQLVESGGGVVQPGRSLRLSCAASGFTFSNYGMHWVRQAPGKGLEWVAVISFDGGNKYYADSVKGRFTISRDNSKNTLYLQMNSLRAEDTAVYYCAKSGYFDSSGYFYPYYYYGMDVWGQGTTVTVSS
VL: DIELTQAPSVSVSPGQTARITCSGDALPKEYAYWYQQKPGQAPVLVIYKDSERPSGIPERFSGSSSGTTVTLTISGVQAEDEGDYYCQSADSSGTHVVFGGGTKLTVL
notes: Human variable regions cloned from donor B cells and fused recombinantly to an independently cloned generic constant region; Lambda light chain
As for B4, the binding result in [2], in [12], in experiment [14], in experiment [9], in experiment [10] and in experiment [13] was “no binding” each time. In addition, the binding result in the experiment with BSA is “no binding”. Further, the Kd is 67 nM in experiment [15], 40 nM in experiment [5] and 0.1 nM in [6].
